B1: Cell adhesion molecule CEACAM1 (Homo sapiens), P13688 (parent)
chain: MGHLSAPLHRVRVPWQGLLLTASLLTFWNPPTTAQLTTESMPFNVAEGKEVLLLVHNLPQQLFGYSWYKGERVDGNRQIVGYAIGTQQATPGPANSGRETIYPNASLLIQNVTQNDTGFYTLQVIKSDLVNEEATGQFHVYPELPKPSISSNNSNPVEDKDAVAFTCEPETQDTTYLWWINNQSLPVSPRLQLSNGNRTLTLLSVTRNDTGPYECEIQNPVSANRSDPVTLNVTYGPDTPTISPSDTYYRPGANLSLSCYAASNPPAQYSWLINGTFQQSTQELFIPNITVNNSGSYTCHANNSVTGCNRTTVKTIIVTELSPVVAKPQIKASKTTVTGDKDSVNLTCSTNDTGISIRWFFKNQSLPSSERMKLSQGNTTLSINPVKREDAGTYWCEVFNPISKNQSDPIMLNVNYNALPQENGLSPGAIAGIVIGVVALVALIAVALACFLHFGKTGRASDQRDLTEHKPSVSNHTQDHSNDPPNKMNEVTYSTLNFEAQQPTQPTSASPSLTATEIIYSEVKKQ

Variants of: B1
Conditions: with havr2_human HAVCR2, Q8TDQ0

| Variant | effect of a mutation on the interaction |
| --- | --- |
| G81A | disrupting interaction strength |
| Q78L | decreasing interaction strength |
| N76A | decreasing interaction strength |
| Q123H | decreasing interaction strength |

From IntAct's records for PubMed 25363763
